Earlier results in PMC4411291.

Molecular target: Calmodulin (UniProt P0DP23)

Kd: 1000 nM
Substance: STIM2 C-terminal site (from UniProt Q9P246)
